For three molecules, binding result and Kd results are on record in PMC9035363 (Cell Reports, 2022).

Where two headings read alike, the source gives them in different places.

Holding throughout (assay): SPR
On the technique in general: SPR reads the build-up and loss of mass on a sensor chip optically.

The target in assay [1] is T1, SARS-CoV-2 S protein, soluble trimer (SARS-CoV-2, Wuhan reference …, UniProt P0DTC2, stabilised).
Assay [2] deals with T2, SARS-CoV-2 D614G S protein, soluble trimer (SARS-CoV-2, Wuhan sequence with D614G, UniProt A0A6H1PJZ3, D614G).
Assay [3] has as its target T1, SARS-CoV-2 S protein, soluble trimer. This is another data set of the same source.
In assay [4] the target is T2, SARS-CoV-2 D614G S protein, soluble …. The source holds these as a separate data set.

B1: REGN10987 (imdevimab) (antibody, V domains shown)
VH: QVQLVESGGGVVQPGRSLRLSCAASGFTFSNYAMYWVRQAPGKGLEWVAVISYDGSNKYYADSVKGRFTISRDNSKNTLYLQMNSLRTEDTAVYYCASGSDYGDYLLVYWGQGTLVTVSS
VL: QSALTQPASVSGSPGQSITISCTGTSSDVGGYNYVSWYQQHPGKAPKLMIYDVSKRPSGVSNRFSGSKSGNTASLTISGLQSEDEADYYCNSLTSISTWVFGGGTKLTVL
In the case of B1, the binding result in assay [1] is reported as “binds”.

B2: LY-CoV1404 (bebtelovimab), full-length human IgG1 mAb (antibody, V domains shown)
VH: QITLKESGPTLVKPTQTLTLTCTFSGFSLSISGVGVGWLRQPPGKALEWLALIYWDDDKRYSPSLKSRLTISKDTSKNQVVLKMTNIDPVDTATYYCAHHSISTIFDHWGQGTLVTVSS
VL: QSALTQPASVSGSPGQSITISCTATSSDVGDYNYVSWYQQHPGKAPKLMIFEVSDRPSGISNRFSGSKSGNTASLTISGLQAEDEADYYCSSYTTSSAVFGGGTKLTVL
Take B2: the Kd stood at 0.0461 nM in assay [2], 0.0745 nM in assay [3] and 0.22 nM in assay [1].

B3: LY-CoV1404 Fab (papain digestion) (Fab, V domains shown)
VH: B2 VH
VL: B2 VL
In assay [4], B3 yielded a Kd of 0.79 nM.

One may read the Kd as a measure of binding affinity in units of concentration. A lower Kd goes with tighter binding.
